# Changes are numbered by the printed parent chain. In names and notes the source's numbering stands.
# T1: hCD112R-ECD-His6-Avi (human, UniProt Q6DKI7 42-172, biotinylated (Avi tag) in the ELISA assays)
# T1 construct: range 42-172; Expressed in HEK 293F cells; Analyte in SPR, and captured on streptavidin in ELISA; also called biotinylated hCD112R-ECD-His6-Avi; not shown: C-terminal His6-Avi tag
# T1 sequence (looked up): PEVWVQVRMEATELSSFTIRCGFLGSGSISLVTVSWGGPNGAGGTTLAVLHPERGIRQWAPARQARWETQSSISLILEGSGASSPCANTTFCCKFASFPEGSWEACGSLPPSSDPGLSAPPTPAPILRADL
# T2: hCD112R-ECD-mFc WT (human; mouse, UniProt Q6DKI7 42-172)
# T2 construct: range 42-172; also called WT hCD112R; wildtype (WT) hCD112R protein; not shown: Fc domain of mouse IgG2a
# T2 sequence (looked up): T1 sequence (looked up)
# T3: H92A (human, UniProt Q6DKI7)
# T3 construct: extracellular domain, amino acids 42-172; alanine-scanning variant; also called hCD112R-ECD-mFc H92A variant
# T3 sequence (Fc fusion chain, looked up): T1 sequence (looked up) with H51A
# T4: E94A (human, UniProt Q6DKI7)
# T4 construct: extracellular domain, amino acids 42-172; alanine-scanning variant; also called hCD112R-ECD-mFc E94A variant
# T4 sequence (Fc fusion chain, looked up): T1 sequence (looked up) with E53A
# T5: hCD112R-ECD-mFc V90A variant (human; mouse, UniProt Q6DKI7 42-172)
# T5 construct: range 42-172; also called V90A mutation of hCD112R; not shown: Fc domain of mouse IgG2a
# T5 sequence (looked up): T1 sequence (looked up) with V49A
# T6: hCD112R-ECD-mFc W100A variant (human; mouse, UniProt Q6DKI7 42-172)
# T6 construct: range 42-172; also called W100A mutation of hCD112R; not shown: Fc domain of mouse IgG2a
# T6 sequence (looked up): T1 sequence (looked up) with W59A
# B1: H733 (humanized Ab composed of 733-VH-humanV2 and 733-VL-human-C91S) (antibody, human IgG4, V domains shown)
# VH: QVQLVQSGAEVKKPGASVKVSCKASGYTFTNYLIEWVRQAPGQGLEWMGVINPGHGFTNYAQKFQGRVTMTRDTSTSTVYMELSSLRSEDTAVYYCARGEWDWYFDVWGQGTTVTVSS
# VL: DIQLTQSPSFLSASVGDRVTITCKASQNVGTAVAWYQQKPGKAPKLLIYSTSNRYTGVPSRFSGSGSGTEFTLTISSLQPEDFATYYCQQSSSYPFTFGGGTKVEIK
# notes: also called H733-hIgG4; H733 mAb (hIgG4 form)
# How the values were obtained:
# hCD112R-ECD-His6-Avi = target: T1, hCD112R-ECD-His6-Avi; test: SPR (Biacore T200), multi-cycle; H733 captured on anti-hFc Ab, hCD112R-ECD-His6-Avi injected; 1:1 Langmuir [Cont') B]
# Description: Anti-hFc Ab (Thermo Fisher) was covalently attached to surfaces of a CM5 sensor chip using an amine coupling kit (GE Healthcare). Abs at optimal concentrations were captured on the chip and the analytes (hCD112R-ECD-His₆-Avi) at single concentration or serial dilutions were then injected. Binding kinetics were evaluated using a 1:1 Langmuir binding model. The association rates (ka), dissociation rates (kd), and affinity constants (KD) were calculated using Biacore T200 evaluation software.
# hCD112R-ECD-mFc WT = target: T2, hCD112R-ECD-mFc WT; test: SPR (Biacore T200), multi-cycle; H733-hIgG4 captured on anti-hFc Ab, hCD112R-ECD-mFc WT injected (3.125-100 nM); 1:1 Langmuir [Cont') B]
# Description: (§1) Kinetic analyses of the bindings of WT or mutated hCD112R-ECD-mFc proteins to H733 and hCD112-ECD were performed on a Biacore T200 instrument (Biacore, GE Healthcare). For the single-cycle SPR analysis, anti-mFc Ab (Thermo Fisher) was covalently attached to surfaces of a CM5 sensor chip using an amine coupling kit (GE Healthcare). WT or mutated hCD112R-ECD mFc fusion proteins were captured on the chip and H733-hIgG4 or hCD112-ECD-hFc were then injected. For the multi-cycle SPR analysis, anti-hFc Ab (Thermo Fisher) was covalently attached to surfaces of a CM5 sensor chip using an amine coupling kit (GE Healthcare). H733-hIgG4 or hCD112-ECD-hFc protein was captured on the chip and 2-fold serially diluted WT or mutated hCD112R-ECD-mFc proteins (3.125-100 nM) were then injected. Binding kinetics were evaluated using a 1:1 Langmuir binding model. The association rates (ka), dissociation rates (kd), and affinity constants (KD) were calculated using Biacore T200 evaluation software.
# H92A = target: T3, H92A; test: SPR (Biacore T200), multi-cycle; H733-hIgG4 captured on anti-hFc Ab, hCD112R-ECD-mFc variant injected (3.125-100 nM); 1:1 Langmuir [Cont') B]
# Description: as §1
# E94A = target: T4, E94A; test: as above
# Description: as §1
# [1] = target: T5, hCD112R-ECD-mFc V90A variant; test: as above
# Description: as §1
# [2] = target: T6, hCD112R-ECD-mFc W100A variant; test: as above
# Description: as §1
binder,measurement,setting,value
B1,koff,hCD112R-ECD-His6-Avi,0.000865 s⁻¹
same,kon,hCD112R-ECD-His6-Avi,1.33e+06 M⁻¹ s⁻¹
same,Kd,hCD112R-ECD-mFc WT,0.333 nM
same,koff,hCD112R-ECD-mFc WT,0.000364 s⁻¹
same,kon,hCD112R-ECD-mFc WT,1.1e+06 M⁻¹ s⁻¹
same,Kd,H92A,0.366 nM
same,koff,H92A,0.000373 s⁻¹
same,kon,H92A,1.02e+06 M⁻¹ s⁻¹
same,Kd,E94A,0.533 nM
same,koff,E94A,0.000573 s⁻¹
same,kon,E94A,1.08e+06 M⁻¹ s⁻¹
same,Kd,[1],2.01 nM
same,koff,[1],0.000475 s⁻¹
same,kon,[1],237000 M⁻¹ s⁻¹
same,Kd,[2],5.64 nM
same,koff,[2],0.000574 s⁻¹
same,kon,[2],102000 M⁻¹ s⁻¹
